Measurements: patent US20230113734A1

Biological target: SARS-CoV-2 S protein (spike protein) (SARS-CoV-2) (UniProt P0DTC2)
Test: ELISA, S proteins on plate (the reference itself)

positive control antibody (CR3022)
Binding ability (relative to positive control antibody): 1
